# US20140155582A1 (Astellas, published 2014)
# B1: 1-15(N52D-A)-Fab′ conjugated to 5 kDa PEG (Fab, V domains shown)
# VH: QVQLQQWGAGLLKPSETLSLTCAVYGGSFSGYYWSWVRQPPGKGLEWIGEIDHSGSTNNNPSLKSRVTISVGTSKNQFSLKLSSVTAADTAVYYCSRDGGPESGMGAFDIWGQGTMVTVSS
# VL: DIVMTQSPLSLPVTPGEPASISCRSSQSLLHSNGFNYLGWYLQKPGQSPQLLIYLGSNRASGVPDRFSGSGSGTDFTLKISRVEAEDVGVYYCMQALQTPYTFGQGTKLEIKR
# modifications: 5 kDa PEG conjugated by a procedure similar to Example 13 (hinge region Cys)
# B2: PEGylated 1-15(N52D)-Fab′ (Fab, V domains shown)
# VH: B1 VH
# VL: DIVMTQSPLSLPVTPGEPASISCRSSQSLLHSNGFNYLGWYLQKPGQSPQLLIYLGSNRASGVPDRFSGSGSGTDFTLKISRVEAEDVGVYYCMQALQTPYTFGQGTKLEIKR
# modifications: 40 kDa PEG (maleimide, SUNBRIGHT GL2-400MA) on Cys at position 230 of SEQ ID NO:10 (C226 based on EU index)
# B3: 1-15(N52D-A)-Fab′ conjugated to 10 kDa PEG (Fab, V domains shown)
# VH: B1 VH
# VL: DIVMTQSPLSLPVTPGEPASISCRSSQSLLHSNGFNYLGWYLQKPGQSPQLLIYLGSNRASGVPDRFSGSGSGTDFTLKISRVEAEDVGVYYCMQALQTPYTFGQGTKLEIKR
# modifications: 10 kDa PEG conjugated by a procedure similar to Example 13 (hinge region Cys)
# B4: tanezumab (antibody, V domains shown)
# VH: QVQLQESGPGLVKPSETLSLTCTVSGFSLIGYDLNWIRQPPGKGLEWIGIIWGDGTTDYNSAVKSRVTISKDTSKNQFSLKLSSVTAADTAVYYCARGGYWYATSYYFDYWGQGTLVTVSS
# VL: DIQMTQSPSSLSASVGDRVTITCRASQSISNNLNWYQQKPGKAPKLLIYYTSRFHSGVPSRFSGSGSGTDFTFTISSLQPEDIATYYCQQEHTLPYTFGQGTKLEIKR
# What was measured:
# [1] = molecular target: human βNGF (R&D Systems, Inc.) (human, UniProt P01138 122-241); assay: cell-based or functional assay
# human βNGF (R&D Systems, Inc.), sequence (P01138 122-241 limits assumed): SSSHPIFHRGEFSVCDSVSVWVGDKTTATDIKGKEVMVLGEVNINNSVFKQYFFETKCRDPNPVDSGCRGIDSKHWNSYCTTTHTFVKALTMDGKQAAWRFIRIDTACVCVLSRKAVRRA
# [2] = molecular target: mouse βNGF (R&D Systems, Inc.) (mouse, UniProt P01139 122-241); assay: cell-based or functional assay
# mouse βNGF (R&D Systems, Inc.), sequence (P01139 122-241 limits assumed): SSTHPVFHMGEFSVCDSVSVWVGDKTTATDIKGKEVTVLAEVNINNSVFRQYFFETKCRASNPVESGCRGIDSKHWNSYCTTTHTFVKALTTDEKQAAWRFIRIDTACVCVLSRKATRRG
Binder,"IC50, method of Example 6 at a final NGF concentration of 50 ng/ml [1] [µg/mL]","IC50, method of Example 6 (Ca2+, HEK293-human trkA) [2] [µg/mL]","IC50, method of Example 6 (Ca2+, HEK293-human trkA) [1] [µg/mL]"
B1,0.03,–,–
B2,–,0.069,–
B3,0.028,–,–
B4,–,0.23,0.17
